Laboratory results as given in FireProtDB (doi:10.1007/s00792-015-0748-z).

Details: Pyrococcus furiosus (strain ATCC 43587 / DSM 3638 / JCM 8422 / Vc1), 60 °C, GdnHCl, Fluorescence, Tris, NaCl, transition: 2, reversible: yes, whole UniProt chain shown

B1: L-asparaginase wild type, Q8TZE8 (protein)
chain: MKILLIGMGGTIASVKGENGYEASLSVKEVLDIAGIKDCEDCDFLDLKNVDSTLIQPEDWVDLAETLYKNVKKYDGIIVTHGTDTLAYTSSMISFMLRNPPIPIVFTGSMIPATEENSDAPLNLQTAIKFATSGIRGVYVAFNGKVMLGVRTSKVRTMSRDAFESINYPIIAELRGEDLVVNFIPKFNNGEVTLDLRHDPKVLVIKLIPGLSGDIFRAAVELGYRGIVIEGYGAGGIPYRGSDLLQTIEELSKEIPIVMTTQAMYDGVDLTRYKVGRLALRAGVIPAGDMTKEATVTKLMWILGHTNNVEEIKVLMRKNLVGELRD
denaturant m value (pH 8): 5.12 kcal/mol/M | denaturant midpoint (higher = more stable) (pH 8): 3.04 M | unfolding free energy (pH 8): 15.7 kcal/mol | denaturant m value (pH 9): 0.9 kcal/mol/M | denaturant midpoint (higher = more stable) (pH 9): 1.99 M | unfolding free energy (pH 9): 1.6 kcal/mol
